Among the data in patent US20180171001A1 are neutralization IC50 values, retold here.

Positions count from the first letter of the chain named. Where only a bound is given, the exact number is not on record here.

Holding throughout (experiment): cell-based or functional assay
Assay [1] has as its target Env of HIV-1 strain 231965.c1 (HIV-1).
Assay [2] has as its target Env of HIV-1 strain 250-4 (HIV-1).
For assay [3], the target named is Env of HIV-1 strain 251-18 (HIV-1).
Assay [4] concerns the target Env of HIV-1 strain 3016.v5.c45 (HIV-1).
For assay [5], the target named is Env of HIV-1 strain 3365.v2.c20 (HIV-1).
The target in assay [6] is Env of HIV-1 strain 3415.v1.c1 (HIV-1).
Assay [7] concerns the target Env of HIV-1 strain Du172.17 (HIV-1).
Assay [8] addresses Env of HIV-1 strain H086.8 (HIV-1).
Assay [9] deals with Env of HIV-1 strain PVO.4 (HIV-1).
The target in assay [10] is Env of HIV-1 strain R1166.c1 (HIV-1).
For assay [11], the target named is Env of HIV-1 strain REJO4541.67 (HIV-1).
Assay [12] addresses Env of HIV-1 strain X1254_c3 (HIV-1).
The target in assay [13] is Env of HIV-1 strain YU2.DG (HIV-1).
In assay [14] the target is Env of HIV-1 strain ZM109F.PB4 (HIV-1).
For assay [15], the target named is Env of HIV-1 strain ZM53M.PB12 (HIV-1).
Another assay deals with Env of MuLV.

B1: γ59κ11 (antibody, V domains shown)
VH: QIHLVQSGTEVKKPGSSVTVSCKAYGVNTFGLYAVNWVRQAPGQGLEYIGQIWRWKSSASHHFRGRVLISAVDLTGSSPPISSLEIKNVTSDDTAVYFCTTTSTYDEWSDLHHDGVMAFSSWGQGTLISVSA
VL: DIQMTQSPSTLSASVGGTVRISCRASQSITGGWLAWYHQRPGKAPRLLIYRGSRLLGGVPSRFSGSAAGTDFTLTIANLQAEDFGTFYCQQYDTYPGTFGQGTKVEVKR
Consider B1, for which the neutralization IC50 in [1], in assay [2], in assay [3], in [4], in assay [5] and in [6] was greater than 15 µg/mL in each case. Also, the neutralization IC50 is greater than 15 µg/mL in [7]; greater than 15 µg/mL in assay [8]; greater than 15 µg/mL in assay [9]; 12.6 µg/mL in [10]; 1.57 µg/mL in assay [11]; 4.67 µg/mL in assay [12]. In addition, the neutralization IC50 in [13] was 6.91 µg/mL; in assay [14], greater than 15 µg/mL; in [15] it was greater than 15 µg/mL; with Env of MuLV, greater than 30 µg/mL.

B2: γ20κ18 (antibody, V domains shown)
VH: B1 VH with T19A, G45S, H62D, L68I, V89L, T101A, Y105P, E107Y, D110G
VL: B1 VL with G17D, T70A
Consider B2, for which the neutralization IC50 in [1], in assay [2], in assay [3], in assay [4], in assay [5] and in assay [6] was greater than 15 µg/mL each time. Besides, the neutralization IC50 was greater than 15 µg/mL in assay [7]; greater than 15 µg/mL in assay [8]; greater than 15 µg/mL in assay [9]; 20 µg/mL in assay [10]; greater than 15 µg/mL in assay [11]; 5.22 µg/mL in assay [12]. The neutralization IC50 in assay [13] is greater than 15 µg/mL; in assay [14], greater than 15 µg/mL; in assay [15], greater than 15 µg/mL; with Env of MuLV, greater than 30 µg/mL.

B3: γ23κ18 (antibody, V domains shown)
VH: B1 VH with G45S, L68I, V89L, Y105S, E107Y, D110G
VL: B1 VL with G17D, T70A
With B3, the neutralization IC50 is 0.128 µg/mL in assay [1]; greater than 15 µg/mL in [2]; 1.58 µg/mL in assay [3]; 0.047 µg/mL in assay [4]; greater than 15 µg/mL in assay [5]; greater than 15 µg/mL in [6]. Moreover, the neutralization IC50 was 2.95 µg/mL in assay [7]; greater than 15 µg/mL in assay [8]; 0.047 µg/mL in assay [9]; 0.708 µg/mL in [10]; 0.061 µg/mL in assay [11]; 0.545 µg/mL in [12]. For the same molecule, the neutralization IC50 in assay [13] is 0.117 µg/mL; in assay [14] it was greater than 15 µg/mL; in [15] it was greater than 15 µg/mL; with Env of MuLV, greater than 30 µg/mL.

B4: γ22κ18 (antibody, V domains shown)
VH: B1 VH with G45S, S77P, V89L, E107K, D110G
VL: B1 VL with G17D, T70A
In the case of B4, the neutralization IC50 in [1] is 26 µg/mL; in [2], greater than 15 µg/mL; in [3], greater than 15 µg/mL; in assay [4], 13.3 µg/mL; in [5] it was greater than 15 µg/mL; in assay [6], greater than 15 µg/mL. Further, the neutralization IC50 is greater than 15 µg/mL in assay [7]; greater than 15 µg/mL in [8]; greater than 15 µg/mL in assay [9]; 7.31 µg/mL in [10]; greater than 15 µg/mL in assay [11]; 1.58 µg/mL in assay [12]. Further, the neutralization IC50 in assay [13] was 8.23 µg/mL; in assay [14], greater than 15 µg/mL; in assay [15], greater than 15 µg/mL; with Env of MuLV, greater than 30 µg/mL.

B5: γ59κ18 (antibody, V domains shown)
VH: B1 VH
VL: B1 VL with G17D, T70A
With B5, the neutralization IC50 in assay [1] is greater than 15 µg/mL; in assay [2] it was greater than 15 µg/mL; in [3], 25 µg/mL; in [4] it was greater than 15 µg/mL; in assay [5], greater than 15 µg/mL; in assay [6], greater than 15 µg/mL. In addition, the neutralization IC50 was greater than 15 µg/mL in assay [7]; greater than 15 µg/mL in assay [8]; greater than 15 µg/mL in assay [9]; 11.7 µg/mL in [10]; 1.23 µg/mL in assay [11]; 4.07 µg/mL in assay [12]. Also, the neutralization IC50 in [13] is 7.71 µg/mL; in assay [14], greater than 15 µg/mL; in [15], greater than 15 µg/mL; with Env of MuLV it was greater than 15 µg/mL.

B6: γ52κ18 (antibody, V domains shown)
VH: B1 VH with G45S, V89L, E107R, D110G
VL: B1 VL with G17D, T70A
As to B6, the neutralization IC50 is 0.284 µg/mL in assay [1]; greater than 15 µg/mL in assay [2]; 0.116 µg/mL in [3]; 0.129 µg/mL in assay [4]; greater than 15 µg/mL in [5]; greater than 15 µg/mL in assay [6]. In addition, the neutralization IC50 in assay [7] was greater than 15 µg/mL; in assay [8], 0.464 µg/mL; in assay [9], 0.081 µg/mL; in assay [10], 1.35 µg/mL; in assay [11], 2.13 µg/mL; in assay [12] it was 1.57 µg/mL. Besides, the neutralization IC50 in assay [13] is 0.265 µg/mL; in [14] it was greater than 15 µg/mL; in assay [15], greater than 15 µg/mL; with Env of MuLV, greater than 15 µg/mL.

B7: γ46κ18 (antibody, V domains shown)
VH: B1 VH with E107K, D110G, M117V
VL: B1 VL with G17D, T70A
As for B7, the neutralization IC50 in assay [1] is 4.16 µg/mL; in [2], greater than 15 µg/mL; in assay [3] it was greater than 15 µg/mL; in [4] it was 2.99 µg/mL; in assay [5], greater than 15 µg/mL; in assay [6], greater than 15 µg/mL. Moreover, the neutralization IC50 was greater than 15 µg/mL in [7]; greater than 15 µg/mL in [8]; 2.1 µg/mL in assay [9]; 4.1 µg/mL in assay [10]; greater than 15 µg/mL in [11]; 4.2 µg/mL in assay [12]. Further, the neutralization IC50 in assay [13] was 2.36 µg/mL; in assay [14] it was greater than 15 µg/mL; in assay [15], greater than 15 µg/mL; with Env of MuLV it was greater than 15 µg/mL.

B8: γ4κ18 (antibody, V domains shown)
VH: B1 VH with G45S, L68I, S83P, V89L, Y105S, E107R, D110G
VL: B1 VL with G17D, T70A
As for B8, the neutralization IC50 in assay [1], in [2], in [3], in assay [4], in assay [5] and in [6] was greater than 15 µg/mL throughout. Also, the neutralization IC50 is greater than 15 µg/mL in assay [7]; greater than 15 µg/mL in assay [8]; greater than 15 µg/mL in assay [9]; greater than 15 µg/mL in assay [10]; greater than 15 µg/mL in assay [11]; 16.2 µg/mL in assay [12]. Further, the neutralization IC50 was greater than 15 µg/mL in [13], greater than 15 µg/mL in assay [14], greater than 15 µg/mL in [15] and greater than 30 µg/mL with Env of MuLV.

B9: γ3κ18 (antibody, V domains shown)
VH: QIHLVQSGTEVKKPGSSVTVSCKAYGVNTFGLYAVSWVRQAPGQRLEYIGQIRRWKSSASHHFRGRVTVSAVDPTGSSPPISSLEIRDLTTDDTAVYFCTTTSTSDYWSGLHNERGTAFSSWGQGTLISVSA
VL: B1 VL with G17D, T70A
For the molecule B9, the neutralization IC50 in [1] is 0.163 µg/mL; in assay [2], greater than 15 µg/mL; in assay [3], greater than 15 µg/mL; in assay [4] it was 0.057 µg/mL; in assay [5] it was greater than 15 µg/mL; in assay [6], greater than 15 µg/mL. For the same molecule, the neutralization IC50 in [7] was 11.5 µg/mL; in assay [8] it was 0.209 µg/mL; in assay [9], 0.028 µg/mL; in assay [10] it was 0.578 µg/mL; in [11] it was 0.049 µg/mL; in [12], 0.616 µg/mL. For the same molecule, the neutralization IC50 in [13] is 0.07 µg/mL; in assay [14] it was greater than 15 µg/mL; in assay [15] it was greater than 15 µg/mL; with Env of MuLV it was greater than 30 µg/mL.
